Drawing on article PMC6684648, this text covers fold reduction of IGF2 binding against wild type for one substance.

The target of this assay is human IGF2R extra-cellular domains 1-15 I1572A fused at the C-terminal to rat CD4 (domains 3 + 4), biotin acceptor domain and histidine tag (human) (UniProt P11717). The experiment in a line: SPR; BIAcore T200; about 1800 RU of biotinylated CD4-IGF2R fusion protein immobilised on a CM5 chip loaded with streptavidin; IGF2 256 to 0.125 nM injected for 200 s, 25 °C, 40 μl/min, HBS-EP; 1:1 binding model and steady state analysis. In general terms: SPR reads the build-up and loss of mass on a sensor chip optically.
Sequence of human IGF2R extra-cellular domains 1-15 I1572A fused at the C-terminal to rat CD4 (domains 3 + 4), biotin acceptor domain and histidine tag (human) (P11717 41-2304 I1572A): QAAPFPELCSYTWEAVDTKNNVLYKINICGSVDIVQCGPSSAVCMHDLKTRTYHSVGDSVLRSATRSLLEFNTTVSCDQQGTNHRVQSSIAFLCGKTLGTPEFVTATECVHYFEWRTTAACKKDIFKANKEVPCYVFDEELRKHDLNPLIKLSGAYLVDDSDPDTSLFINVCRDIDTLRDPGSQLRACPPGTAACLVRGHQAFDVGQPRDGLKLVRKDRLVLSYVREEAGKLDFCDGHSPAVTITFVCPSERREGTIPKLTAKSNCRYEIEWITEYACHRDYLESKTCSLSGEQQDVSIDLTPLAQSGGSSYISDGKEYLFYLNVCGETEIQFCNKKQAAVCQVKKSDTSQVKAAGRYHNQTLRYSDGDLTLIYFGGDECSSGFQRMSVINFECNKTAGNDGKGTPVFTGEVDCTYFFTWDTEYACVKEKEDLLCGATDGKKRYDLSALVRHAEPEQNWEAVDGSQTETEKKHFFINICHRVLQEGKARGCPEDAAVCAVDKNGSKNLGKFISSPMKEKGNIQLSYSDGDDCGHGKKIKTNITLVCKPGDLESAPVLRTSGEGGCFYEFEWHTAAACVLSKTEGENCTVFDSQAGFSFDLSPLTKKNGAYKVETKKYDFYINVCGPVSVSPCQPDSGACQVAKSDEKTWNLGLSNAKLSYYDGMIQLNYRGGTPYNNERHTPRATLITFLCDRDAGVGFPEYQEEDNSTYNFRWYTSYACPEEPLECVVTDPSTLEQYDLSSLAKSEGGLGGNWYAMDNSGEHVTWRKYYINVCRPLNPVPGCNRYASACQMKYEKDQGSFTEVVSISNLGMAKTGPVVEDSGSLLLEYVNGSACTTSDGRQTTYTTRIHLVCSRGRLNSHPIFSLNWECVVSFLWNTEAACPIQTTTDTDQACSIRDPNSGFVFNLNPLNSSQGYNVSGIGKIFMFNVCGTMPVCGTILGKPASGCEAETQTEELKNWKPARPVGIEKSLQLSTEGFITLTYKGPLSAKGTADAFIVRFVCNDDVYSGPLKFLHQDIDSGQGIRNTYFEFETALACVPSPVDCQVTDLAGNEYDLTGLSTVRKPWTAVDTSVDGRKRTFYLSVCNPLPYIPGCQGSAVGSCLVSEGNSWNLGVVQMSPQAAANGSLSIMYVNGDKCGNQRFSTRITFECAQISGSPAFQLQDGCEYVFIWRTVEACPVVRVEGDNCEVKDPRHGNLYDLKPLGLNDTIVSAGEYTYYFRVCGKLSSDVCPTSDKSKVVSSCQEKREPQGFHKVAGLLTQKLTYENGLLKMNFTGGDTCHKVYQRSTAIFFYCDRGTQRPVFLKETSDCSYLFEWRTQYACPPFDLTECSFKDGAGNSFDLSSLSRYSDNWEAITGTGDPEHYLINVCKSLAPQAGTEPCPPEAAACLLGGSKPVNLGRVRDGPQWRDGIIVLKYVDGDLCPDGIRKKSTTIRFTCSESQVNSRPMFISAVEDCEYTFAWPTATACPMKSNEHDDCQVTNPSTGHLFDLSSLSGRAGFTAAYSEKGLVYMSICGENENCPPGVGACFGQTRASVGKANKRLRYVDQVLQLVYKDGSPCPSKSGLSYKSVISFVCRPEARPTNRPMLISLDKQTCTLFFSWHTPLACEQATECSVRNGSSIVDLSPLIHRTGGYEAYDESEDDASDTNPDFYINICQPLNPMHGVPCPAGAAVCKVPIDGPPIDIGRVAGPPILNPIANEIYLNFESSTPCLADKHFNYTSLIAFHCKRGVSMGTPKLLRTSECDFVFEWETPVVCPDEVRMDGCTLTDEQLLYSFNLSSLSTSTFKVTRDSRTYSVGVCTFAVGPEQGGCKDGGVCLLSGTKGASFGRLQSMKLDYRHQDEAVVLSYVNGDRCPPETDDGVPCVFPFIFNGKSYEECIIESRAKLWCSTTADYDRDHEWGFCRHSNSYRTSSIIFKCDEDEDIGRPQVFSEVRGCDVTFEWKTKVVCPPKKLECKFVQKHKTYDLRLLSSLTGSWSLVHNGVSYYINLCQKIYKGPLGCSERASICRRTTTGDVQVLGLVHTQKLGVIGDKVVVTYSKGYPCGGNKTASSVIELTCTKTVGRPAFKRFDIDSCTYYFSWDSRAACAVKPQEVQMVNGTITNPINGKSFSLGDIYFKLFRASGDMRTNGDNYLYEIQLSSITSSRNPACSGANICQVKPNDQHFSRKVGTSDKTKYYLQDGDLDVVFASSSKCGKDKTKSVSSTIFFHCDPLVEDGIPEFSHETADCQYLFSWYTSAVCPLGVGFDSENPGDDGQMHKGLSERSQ

For human IGF2 (ligand), the fold reduction of IGF2 binding against wild type worked out at 100 fold.
